Measured values published in PMC2268108.

Biological target: T1, KcsA K+ channel, wild type, P0A334
T1 chain: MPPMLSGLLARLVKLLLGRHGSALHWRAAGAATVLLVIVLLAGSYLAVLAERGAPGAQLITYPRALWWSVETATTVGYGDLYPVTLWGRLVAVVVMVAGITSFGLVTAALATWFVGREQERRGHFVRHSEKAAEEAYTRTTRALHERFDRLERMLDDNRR
Assay: SDS-PAGE of the tetramer
Settings: remark: other sources report otherwise

B1: KcsA K+ channel, wild type, P0A334 1-160 (natural protein)
chain: T1 chain
- stoichiometry N: 4
